No end group written: not given here. Me3 = trimethyl (lysine)
How the values were obtained:
[1] = molecular target: T1, PZP domain of JADE1 (JADE1PZP), wild type (human, UniProt Q6IE81 201-373); experiment: NMR titration
E215K mutant of JADE1PZP = E215K mutant of JADE1PZP (human, UniProt Q6IE81 201-373, E215K); experiment: other fluorescence titration
[2] = molecular target: T1, PZP domain of JADE1 (JADE1PZP), wild …; experiment: other fluorescence titration

T1 sequence (Q6IE81 201-373): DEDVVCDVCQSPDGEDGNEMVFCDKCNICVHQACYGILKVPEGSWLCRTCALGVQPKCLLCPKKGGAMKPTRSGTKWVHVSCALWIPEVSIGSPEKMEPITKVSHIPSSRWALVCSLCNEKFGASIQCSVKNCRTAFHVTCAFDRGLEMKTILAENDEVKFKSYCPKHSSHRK
Chain of E215K mutant of JADE1PZP (Q6IE81 201-373 E215K): as the sequence (Q6IE81 201-373) above, with E15K counted along it

| Kd [1] | fold decrease in binding affinity against wild type JADE1PZP (E215K mutant of JADE1PZP) | Kd [2] | Binder |
| --- | --- | --- | --- |
| 3000 µM |  |  | ARTK(Me3)QTARKSTG (peptide, UniProt P68431 2-13, looked up) [H3K4me3_(1–12) peptide] |
|  | 3 fold | 0.9 µM | ARTKQTARKSTG (peptide, UniProt P68431 2-13, looked up) [H3_(1–12) peptide (residues 1–12 of H3)] |

— paper PMC11320721 (Nature structural & molecular biology, 2024)
